In the nanobody polyreactivity screen of Harvey et al. (2022):

Assay: yeast display, Sf9 membrane polyspecificity reagent, FACS + sequencing; frameworks hold sequencing errors
How it was run: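 A synthetic nanobody library was expressed on Saccharomyces cerevisiae BJ5465 by galactose induction for 36–48 hours. The library was stained for 1 hour at 4 °C with 10% biotinylated, detergent-solubilized Sf9 membrane reagent and enriched with streptavidin microbeads before FACS. Low and high (top ~1%) gates were set on anti-HA fluorescence for expression and streptavidin fluorescence for reagent binding, and each polyreactivity label reflects the gate of origin.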

| Sequence | polyreactivity (PSR sort gate) |
| --- | --- |
| QVQLVESGGGLVKAGGSLRLSCAASFFFYDMGWYRQAPGKERELVAAISWRGDTTYYADSVKGRFTISRDNAKNTVYLQMNSLKPEDTAVYYCAADYYGNVVYPSYYWGQGTQVTVSS | high polyreactivity |
| QVQLVESGGGLVKAGGSLRLSCAASGFIFLQYVMGSYRQAPVKERELVAAITSGGSTYYADSVKARFTISRDNAKNTVYLQMNSLKPEDTAVYFCATDVADNTFDALYGSDYWGQCTQVTVSS | low polyreactivity |
| QVQLVESGGGLVKAGGSLRLSCAASGIIFDYYAMGWYRQAPGKERELVAAISWDGGRTYYADSVKGRFTISRDNAKNTVYLQMNSLKPEDTAVYYCNKDYWYGYSDFDYWGQGTQVTVSS | low polyreactivity |
| QVQLVESGGGLVKAGGSLRLSCAASGLIFIAYDMGWYRQAPGKERELVAAISSSGGSTYYADSVKGRFTISRDNAKNTVYFQMNSLKPEDTAVYYCASDTTKLQGVEGDYWGQGTQGTVSS | low polyreactivity |
| QVQLVESGGGLVKAGGSLRLSCAASGLIFRRNAMGWYRQAPGKERELVATINFRDTTRYADSVKGRFTISRDNAKNTVYFQMNSLKPEDTAVYYCATEWPERDWWVHKMDYWGQGTQVTVSS | low polyreactivity |
| QVQLVESGGGLVKAGGSLRLSCAASGLTFRVYAMGWYRQAPGKECELVATISRTGSTTYAESVQGRFTISRDNAKNTVYLQMNSLKPEDTAVYYCNARYYFLLWDSLAREYWGQGTQVTVTS | high polyreactivity |
| QVQLVESGGGLVKAGGSLRLSCAASGRIFWHNAMGWYRQAPGNERELVAAITGGGSTYYADSVKGRFTISRDNAKNTVYLQMNSLKPEDTAVYYCATLGSLRYYWPGYDYWGQGTQVTVSS | low polyreactivity |
| QVQLVESGGGLVKAGGSLRLSCAASGRIFYWYALGWYRQAPGKEREFVAVISQGGGSTRYADSVKGRFTISRDNAKNTVYLHMNSLKPEDTAVYYCAASHSRWRQGYGYWGQGTQVTVSS | high polyreactivity |
| QVQLVESGGGLVKAGGSLRLSCAASGRNFKTYAMGWYRQAPGKERELVAAISRDGRTYYADSVKGRFTISRDNAKNTVYLQMNSLKPEDTAVYFCNKRSYRKGDYWGQGTQVTVSS | low polyreactivity |
| QVQLVESGGGLVKAGGSLRLSCAASGRTFGVYAMGWYRQAPGKEREFVAVISWSDDSTYYADSVKGRFTISRDNAKNTVYFQMNSLKPEDSAVYYCAAQTPYGMYYWRQGTQVTVSS | low polyreactivity |
| QVQLVESGGGLVKAGGSLRLSCAASGRTFRAYAMGWYRQAPGKERELVAAITSGGSTKYADSVKGRFTISRDNAKNTVYLQMNSLKPEETAVYYCNARFDRVYQLKWWYSYDYWGQCTQVTVSS | high polyreactivity |
| QVQLVESGGGLVKAGGSLRLSCAASGSIFGRYAMGWYRQAPGKERELVAAISSGGRTYADSVKGRFTISRDNAKNTVYLQMNSLNPEDTAVYYCNARYDGRNSVGPYLGYNYWGQGTQVTVSS | high polyreactivity |
| QVQLVESGGGLVKAGGSLRLSCAASGSIFGSYAMGWYRQAPGKERSTYYADSVKGRFTISRDNAKNTVYLQMNSLKPEDTAVYYRAADTYGYQGSAGGHWGLGTQVTVSS | low polyreactivity |
| QVQLVESGGGLVKAGGSLRLSCAASGSIFSNNAMGWYRQAPGKEREFVAAIRGRGTRTYYADSVKGRFTISRDNAKNTVYLQMNSLKPEDTAVYYCAKYPFQPRDLQFNYWGQGTQVTVSS | high polyreactivity |
| QVQLVESGGGLVKAGGSLRLSCAASGSIFTRNAMGWYRQAPGKERELVAAIRSRGGSTYYADSVKGRFTISRDNAKNTVYLQMNSLKPEDNAVYYCAKKDNTYIFDYWGQGTQVTVSS | low polyreactivity |
| QVQLVESGGGLVKAGGSLRLSCAASGSTFEYDMGWYRPAPGKERELVAAITWTDGGTYYADSVNGRCTISRDNAKNTVYFQMNSLKPEDTAVYYCNAEGWFADFDSGFYAFDYWGQGTQVTVSS | low polyreactivity |
| QVQLVESGGGLVKAGGSLRLSCAASGSTFGSNALGWYRQAPGKERELVAAISNSGGRTYYADSVKGRFTISRDNAKNTVYLQMNSLKPEDTAVYYCAVGSYRDGDYWGQGTQVTVSS | high polyreactivity |
| QVQLVESGGGLVKAGGSLRLSCAASGSTFHIYAMGWYRQAPGKERELVAAISKGGGNTYYADSVKGRFTISRDNAKNTVYLQMNSLKPEDTAVYYCAAVPTRYRSYTYTYGGYNYWGQGTQVTVSS | high polyreactivity |
| QVQLVESGGGLVKAGGSLRLSCAASGSTFRYYAMGWYRQAPGKERELVAGITTGGGRTYYADSVKGRFTISRDNAKNTVYLQMNSLKPEDTAVYYCAADRYSHYWYRISYDYWGQGTQVTVSS | high polyreactivity |
| QVQLVESGGGLVKAGGSLRLSFAASGRIFRRYAMGWCGPAPGKEREFVAAITKSGGSTNYADSVKGRFTISRDNANNTVYLQMNSLKPEDTAVYYCATYPQFYFRYDYWGLGTQVTVSS | high polyreactivity |
| QVQLVESGGGLVKAGGSLRLSFAASGSIFEPYVMGWYRQAPGKQRELVAAISESGDTTYYADSVKGRFTISRDNAKTTVYLKMNSLKPEDTAVYDCNAEDPSIYGWWRVGEYDYWGQGTQVTVSS | low polyreactivity |
| QVQLVESGGGLVKAGGSLRLSSAASGRTFFRNAMGWYRQEPGKERELVAVISDNGGTNYADSVKGRFTMSRDNAKNTVYLQLNSLKPEDTAVDYCATPKRRRYPYYYWGLGTQVTVSS | high polyreactivity |

| Sequence | polyreactivity (PSR sort gate) |
| --- | --- |
| QVQLVESGGGLVKAGGSLRLTCAASGIILRANVMGWYRQAAGKERELLAAISGSGGRTYYADSVKGRFTISRDNAKNSVYLPMNSLKPEDTAVYYCNTPYGLHQAYPYDYWGLGTQVTVSS | high polyreactivity |
| QVQLVESGGGLVKAGGSLRLTCAASGSIFKIYSMGWYIQAPGKERELVATITWSTGTTYYADSVKGRFTISRDNAKNTVFLQMNSLKPEDTAVYYCATEPSWYHGFIDPRGYWGQATQVTVSS | low polyreactivity |
| QVQLVESGGGLVKAGGTLSLSCAASGFIFGFNAMGWYRQAPGKERELVADITSSGGSTYYADSVKGRFTISRDNAKNTVYLQMNSLKPEDTAVYYCAADGWWHNFYPGTGLDYWGQGTQVSVSS | low polyreactivity |
| QVQLVESGGGLVLAGGSLPLSCAASGSIIWRNAMGWSRHAPVKERELVAAITWNGGSTYYADSVKGCFTSSRDNAKNTVYLQMNSLIPEDTAVYYSAARCEYPYDYWGQGSQVTVSS | low polyreactivity |
| QVQLVESGGGLVLAGGSLRLSCAASGFIFARYAMGWYRQAPGKERELVAAISRGGSTYYADSVKGRFTISRDNAKNTVYFQMHSLKPEDTAVYYCNKRQLPNARGSSTYEYWGQGTQVTVSS | high polyreactivity |
| QVQLVESGGGLVLAGGSLRLSCAASGRTFRTYTMGWYRQAPGKERELVAAISYSGGSTYYADSVKGRFTISRDNAKNTVYLQMNSLKPEDTAVYYCAVYQVGWYGLMDYWGEGTQVTVSS | high polyreactivity |
| QVQLVESGGGLVLAGGSLRLSCAASGSTFRGNAMGWYRQAPGKERELVAAITRRGGSTYYADSVKGRFTISRDNAKNTVYLQMNSLKPEDTAVYYCAKVTTYVSAWQGNGYWGQGTQVTVSS | high polyreactivity |
| QVQLVESGGGLVLAGGSLRLTWAASGSIFHYYAMGWYRQAPGKERELVAAISWSGGRTYYADSVKGRFTISRDNAKNTVYLEMNSLKPEDTAVYFCAADTYPYIGGYYWGQGTQVTVSS | high polyreactivity |
| QVQLVESGGGLVNAGGSLRLICDASGLIFYKNAMGWYRQAPGKERELVAAISWRDGRTYYADSVKGRFTISRDNAKNTVYLQMISLIPEDSAVYYCNAVRGITSYDYYYWGQGTQVTVSS | high polyreactivity |
| QVQLVESGGGLVPAGGSLRLSCAASGRIFFRNAMGWYRQAPGKERELVAAITYSGGSTYYADSVKGRFTISRDNAKNTVYLQMNSLKPEDTAVSYCAAGYWFSYSRVTRYDYWGQGTQVTVSS | high polyreactivity |
| QVQLVESGGGLVPAGGSLRLSCAASGRIFGYYAMGWYRQATGKERELLATIRWRGGSPYYADSVKGRFTISRDNAKNTVYLQMNSLKPEVTAVYYCAATRARRWSSPGQYGYWGQGTQVTVSS | high polyreactivity |
| QVQLVESGGGLVPAGGSLRLSCAASGRISDLYAMGCYRQAPGKETEVVAGSTWRGGSTYYADSVKGRFTISRDNAKNTVYLQMNSLKPEDTAVYYCNAVWVQQVVGDGKRTWNFWYDYWGQGTQVTVSS | low polyreactivity |
| QVQLVESGGGLVPAGGSLRLSCAASGRTFGYYAMGWYRPAPGKERELVAAITSNGGSTYYADSVKGRFTISRDNAKNTVYLQMNSLKPEDTAVYYCNTGRRNRLYDYDYWGQGTQVTVSS | high polyreactivity |
| QVQLVESGGGLVPAGGSLRLSCAASGSTFIPNTMGWYRQAPGKERELVAAISRRGGSTNYADSVKGRFTISRDNAKNTVYLQMNSLKPEDTAVYYCAAVSPRRYRYDYWGQGTQVTVSS | low polyreactivity |
| QVQLVESGGGLVPAGGSLRLSCAASGSTFPVYAMGWYRPAPGTERELVAAINSGVSTNYADSVKGRFTMSRDNANTTVYLQRNSLKPEDTAVYYCNTSYVGYPDLGINYEFDYWGQGTQVTVSS | low polyreactivity |
| QVQLVESGGGLVPAGGSLRLSCAASGSTFYIYAMGWYRQAPGKERELVAAISRRGSSTYYADSVKGRFTISRDNAKNTVYLQMNSLIPEDTAVYYCAASQRHDHYYWGQGTQVTVSS | high polyreactivity |
| QVQLVESGGGLVQAAGSLRISCAASGRTFATNAMGWYRQAPGKERELVAVISASGGSTYYADSVKGRFTISRDNAKNTVYLQMNSLKPEDTAVYYCAADVYRRYDYWGQGTQVTVSS | high polyreactivity |
| QVQLVESGGGLVQAAGSLRLICAASGRTFDSYAMGRYRQAPGKEREFVAAISYSGTSTYYADSVKGRFTISRDDAKNTVYLQMNSLKPEDTAVYYCAKEYIFRLWGQGTQVTVSS | low polyreactivity |
| QVQLVESGGGLVQAAGSLRLICDASGFTFDLYAMGWYRQAPGKERELVAAISWSGGSTRYADSVKGGFTISRDNSKNTVYLQMTSLKPEDTALYYCARQPRLYFKVKLYGYWGQGTQVTVSS | high polyreactivity |
| QVQLVESGGGLVQAAGSLRLSCAASGLTFFGYAMGWYRQAPGKERELVAAISSSGTRTYYADSVKGRFTISRDHAKNTVYLQMNSLKPEDTAFYYCASGRYQEYDYWGQGTQVTVSS | high polyreactivity |
| QVQLVESGGGLVQAAGSLRLSCAASGLTFPFYTMGWYIQAPGKARELVAAISRRGGSTYYADSVKGRFTISRDNAKNTVYLQMNSLKPEDTAVYYCAADKYSWYDYWGQGTQVTVSS | low polyreactivity |
